We go through 1 substance from paper doi:10.1101/127514.

Assay [1] deals with Alexa Fluor 647 maleimide-labeled LukS-K281C-Y113H (Staphylococcus aureus). Put plainly: single-molecule step-wise photobleaching.
In assay [2] the target is human C5a receptor with C-terminal mGFP, on HEK cells (human) (UniProt P21730). Put plainly: single-molecule step-wise photobleaching.
UniProt P21730, sequence (P21730 whole entry): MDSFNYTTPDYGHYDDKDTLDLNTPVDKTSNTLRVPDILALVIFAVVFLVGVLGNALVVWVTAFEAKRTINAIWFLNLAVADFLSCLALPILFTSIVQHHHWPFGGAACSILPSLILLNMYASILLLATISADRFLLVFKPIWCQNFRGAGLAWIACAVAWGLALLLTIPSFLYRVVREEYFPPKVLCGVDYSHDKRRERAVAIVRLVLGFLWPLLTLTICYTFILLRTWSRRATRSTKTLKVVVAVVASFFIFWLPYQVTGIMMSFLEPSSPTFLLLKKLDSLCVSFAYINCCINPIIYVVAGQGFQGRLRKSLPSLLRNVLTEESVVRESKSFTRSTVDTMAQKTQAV

As usually defined, the stoichiometry N is the number of molecules, sites or subunits per partner or assembly. “Alexa Fluor 647 maleimide-labeled LukS-K281C-Y113H (natural protein)” showed a stoichiometry N in assay [1] of 3.9 molecules. Also, the stoichiometry N (hC5aR molecules per LukS molecule) in assay [2] fell in the range of 4 to 5.
